Where two headings read alike, the source gives them in different places.
Assays:
[1] = target: CL-arrestin-2-L33C, bimane-labeled (UniProt P17870); assay: fluorescence polarisation
[2] = target: CL-arrestin-2-L33C, bimane-labeled (UniProt P17870); assay: fluorescence polarisation; remark: listed apart in the source

MBP-parkin, sequence (O60260 whole entry): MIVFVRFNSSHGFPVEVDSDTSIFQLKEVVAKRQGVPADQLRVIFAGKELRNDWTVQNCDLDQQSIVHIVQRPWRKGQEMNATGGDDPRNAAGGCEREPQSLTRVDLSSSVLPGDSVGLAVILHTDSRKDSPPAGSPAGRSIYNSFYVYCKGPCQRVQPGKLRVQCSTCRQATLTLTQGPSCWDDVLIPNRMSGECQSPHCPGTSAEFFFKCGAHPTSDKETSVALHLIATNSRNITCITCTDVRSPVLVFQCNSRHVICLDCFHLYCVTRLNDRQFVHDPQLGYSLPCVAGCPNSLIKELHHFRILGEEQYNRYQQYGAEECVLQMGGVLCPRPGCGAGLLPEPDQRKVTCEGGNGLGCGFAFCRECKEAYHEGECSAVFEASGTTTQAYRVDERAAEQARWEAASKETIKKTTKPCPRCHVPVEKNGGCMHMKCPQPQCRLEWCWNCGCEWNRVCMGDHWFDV

- Kd [1]: 19 µM
- Kd [2]: 20.1 µM
Substance: MBP-parkin (from UniProt O60260 1-465) (enzyme)

Reference: paper PMC3091828
